Source: US6506587B2, “TRF 1 binding protein, methods of use thereof” (The Rockefeller University, priority 1998, dated 2003)
Entries after “also recorded” stand apart in the source; their conditions may differ.

What was measured:
tankyrase = biological target: T1, tankyrase (Homo sapiens, UniProt O95271); test: PARP assay with baculovirus-derived tankyrase and [32P]NAD+; assay type: biochemical; conditions: 1 mM 3AB; 4 μg tankyrase, without or with 4 μg TRF1; 1.3 μM [32P]NAD+
T1 construct: [His]6 (pFastBac HTb) (N); made in house; host or cells: SF21 insect cells (baculovirus)
T1 sequence (O95271 1-1327): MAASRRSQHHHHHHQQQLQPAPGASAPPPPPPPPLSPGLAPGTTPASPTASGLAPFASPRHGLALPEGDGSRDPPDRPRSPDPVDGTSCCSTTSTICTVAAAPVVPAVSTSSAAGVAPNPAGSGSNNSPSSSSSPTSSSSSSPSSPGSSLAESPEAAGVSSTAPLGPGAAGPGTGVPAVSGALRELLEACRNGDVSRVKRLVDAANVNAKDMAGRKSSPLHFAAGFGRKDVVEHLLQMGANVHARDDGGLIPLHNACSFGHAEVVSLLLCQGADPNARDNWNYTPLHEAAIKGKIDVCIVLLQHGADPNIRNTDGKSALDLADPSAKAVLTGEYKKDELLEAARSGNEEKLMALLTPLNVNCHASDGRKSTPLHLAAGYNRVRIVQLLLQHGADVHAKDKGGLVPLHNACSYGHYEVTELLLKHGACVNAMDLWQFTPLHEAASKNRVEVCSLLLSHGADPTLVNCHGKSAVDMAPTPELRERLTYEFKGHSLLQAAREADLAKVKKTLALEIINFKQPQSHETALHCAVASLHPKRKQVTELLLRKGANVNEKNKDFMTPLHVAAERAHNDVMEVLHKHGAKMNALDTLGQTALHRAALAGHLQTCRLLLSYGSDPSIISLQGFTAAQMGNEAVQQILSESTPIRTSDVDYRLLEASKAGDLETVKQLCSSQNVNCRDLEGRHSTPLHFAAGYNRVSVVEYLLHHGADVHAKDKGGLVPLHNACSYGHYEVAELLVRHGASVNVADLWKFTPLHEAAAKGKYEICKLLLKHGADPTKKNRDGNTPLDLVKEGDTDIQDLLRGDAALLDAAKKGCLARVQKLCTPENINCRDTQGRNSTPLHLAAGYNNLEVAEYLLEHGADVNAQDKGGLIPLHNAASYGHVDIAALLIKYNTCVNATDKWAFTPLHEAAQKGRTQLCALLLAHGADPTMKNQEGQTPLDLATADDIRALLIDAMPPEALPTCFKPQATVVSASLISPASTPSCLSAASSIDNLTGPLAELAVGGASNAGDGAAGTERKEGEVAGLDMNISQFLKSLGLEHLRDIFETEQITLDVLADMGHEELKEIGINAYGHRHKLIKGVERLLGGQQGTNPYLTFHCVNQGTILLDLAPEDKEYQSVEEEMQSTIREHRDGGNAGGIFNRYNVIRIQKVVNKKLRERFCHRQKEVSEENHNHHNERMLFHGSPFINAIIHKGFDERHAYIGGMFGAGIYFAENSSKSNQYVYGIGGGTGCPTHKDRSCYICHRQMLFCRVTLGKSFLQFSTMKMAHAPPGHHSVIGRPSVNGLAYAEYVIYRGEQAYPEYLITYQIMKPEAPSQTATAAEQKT
Description: Reactions containing 4 μg tankyrase (+), without (−) or with (+) 4 μg TRF 1, and 1.3 μM [^32P]NAD^+ were incubated without (−) or with (+) 1 mM 3AB and processed as in FIG. 9A.
PARP assays were performed with baculovirus-derived tankyrase essentially as described in [Simonin et al. 268:8529 (1993)] but without addition of DNA. To make baculovirus-derived protein, an N-terminally [His]6-tagged fusion protein of human tankyrase was generated in the expression vector pFastBac HTb (Gibco BRL, Grand Island) and used to generate a recombinant plasmid in DH10Bac E. coli. The recombinant DNA was used to transfect SF21 insect cells and recombinant virus was isolated and amplified. Protein was purified as described for baculovirus-derived TRF1 [Bianchi et al., EMBO J. 16:1785 (1997)]. Samples containing tankyrase (0-4 μg) and TRF1 (0-4 μg) [Bianchi et al., EMBO J. 16:1785 (1997)] were incubated for 30 minutes at 25° C. in 0.1 ml of assay buffer containing 50 mM Tris-HCl (pH 8.0), 4 mM Mg Cl2, 0.2 mM dithiothreitol (DTT), 1.3 μM [^32P]NAD+ (4 μCi) and varying concentrations of unlabeled NAD+ (0-1 mM). Reactions were stopped by the addition of 20% trichloroacetic acid (TCA). Acid-insoluble proteins were collected by centrifugation, rinsed in 5% TCA, suspended in Laemmli loading buffer, and fractionated on SDS-PAGE. Proteins were visualized by Coomassie-Blue stain and autoradiography. […]

TRF1 [1] = biological target: T2, TRF1 (Homo sapiens, UniProt P54274); test: Yeast two-hybrid analysis, β-galactosidase assay; assay type: cell-based; conditions: ΔN66-LexA (deletion of the acidic domain of TRF1)
T2 construct: expressed in transfected cells; host or cells: yeast strain L40
T2 sequence (P54274 67-439): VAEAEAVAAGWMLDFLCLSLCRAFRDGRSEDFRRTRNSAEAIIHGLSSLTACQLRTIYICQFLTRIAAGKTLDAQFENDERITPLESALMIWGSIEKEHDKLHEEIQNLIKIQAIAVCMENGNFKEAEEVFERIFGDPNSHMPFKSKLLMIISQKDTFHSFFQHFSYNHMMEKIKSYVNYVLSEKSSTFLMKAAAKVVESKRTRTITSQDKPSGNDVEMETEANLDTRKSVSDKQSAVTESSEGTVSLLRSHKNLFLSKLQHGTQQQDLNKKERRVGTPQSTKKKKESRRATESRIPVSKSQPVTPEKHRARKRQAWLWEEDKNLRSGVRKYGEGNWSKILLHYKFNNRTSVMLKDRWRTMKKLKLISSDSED
Description: (§1) Proteins were immunoprecipitated with an unrelated rabbit serum as a control (C) (lanes 1 and 4), anti-tankyrase antibodies (tankyrase) (lanes 2 and 6) or anti-TRF1 antibody 371 (TRF1) (lanes 3 and 5). Samples were processed, suspended in Laemmli buffer and divided in half. One set was not heated (left panel) and the other was heated at 100° C. for 5 min (right panel). Proteins were fractionated on 10% SDS-PAGE, transferred to nitrocellulose and probed with anti-TRF1 antibody 371 (left panel) or anti-tankyrase antibodies (right panel). […] The values represent an average of three independent transformations. Values<0.01 are indicated by 0.
(§2) TR1L-4 and TR1L-12 were isolated from a human liver two-hybrid cDNA library (Clontech) created in pGad10. The library was screened with human full length TRF1 cDNA fused to LexA (LexA-TRF1) [Bianchi et al., EMBO J., 16:1785-1794 (1997)] in the yeast strain L40 as described [Hollenberg et al., Mol. Cell Biol., 15:3813-3822 (1995)]. Two-hybrid analysis was performed as described by Bianchi et al. [EMBO J., 16:1785-1794 (1997)]. β-galactosidase assays for the two-hybrid analysis was performed as described by Bianchi et al. [EMBO J., 16:1785-1794 (1997)].

TRF1 [2] = biological target: T3, TRF1 (Homo sapiens, UniProt P54274); test: Yeast two-hybrid analysis, β-galactosidase assay; assay type: cell-based; conditions: with amino-terminal acidic domain of TRF1 (LexAd68-C); 12.0 units with GAD lacking tankyrase sequences; average of three transformations
T3 construct: expressed in transfected cells; host or cells: yeast strain L40
Description: as §1, §2
T3 sequence (P54274 1-67): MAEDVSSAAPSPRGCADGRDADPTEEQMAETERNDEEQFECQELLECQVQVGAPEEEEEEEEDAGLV

TRF1 [3] = test: Gel-shift assay for TTAGGG repeat binding activity of TRF1; assay type: biochemical
Description: The Gel-shift assay for the TTAGGG repeat binding activity of TRF1 used a duplex [TTAGGG]12 DNA as a probe. Binding reactions contained the components indicated above the lanes. Tankyrase was varied from 2.5 to 200 ng per 20 μl incubation in three-fold dilution steps (triangles). TRF1 was either present at 13 ng (+) or varied from 120 to 13 ng in three-fold dilution steps (triangle). NAD^+ was at 0 (−) or 0.2 mM (+). The asterisks indicate the position of TRF1-containing complexes as determined by antibody super-shift experiments.
Gel-shift assays were performed using an end-labeled 142 bp Hindlll-Asp718 fragment from plasmid pTH12 [Z. Zhong, et al, Mol. Cell. Biol. 12:4834 (1992)] containing 12 tandem TTAGGG repeats. Baculovirus-derived TRF1 (13 to 120 ng) [Bianchi et al. EMBO J. 16:1785 (1997)] was incubated for 30 minutes at room temperature in a 20 μl reaction containing 20 mM Hepes-KOH (pH 7.9), 100 mM KCL, 0.5 mM DTT, 5% glycerol, 0.1% NP40, 100 ng sheared E. coli DNA, 100 ng β-casein, and 1 ng of labeled probe. In some cases, reactions were supplemented with NAD^+ (0.2 mM) and baculovirus-derived human tankyrase (2.5 to 200 ng). Samples were fractionated on a 0.7% agarose gel run in 0.1× TBE (8.9 mM Tris-base, 8.9 mM Boric acid, and 0.2 mM EDTA) at 130 volts for 1 hour at room temperature. Gels were dried onto Whatman DE81 paper and autoradiographed.

NC(=O)c1cccc(N)c1 [3AB, 3-aminobenzamide]
Modification (ADP-ribosylation) of TRF1 and tankyrase by tankyrase (tankyrase): strongly inhibited; also recorded: inhibited

B1: GAD-tankyrase: 10-ANK repeat domain of TR1L-12 (ANK repeats 9-19) fused to the GAL4 activation domain (protein)
chain: FTPLHEAASKNRVEVCSLLLSHGADPTLVNCHGKSAVDMAPTPELRERLTYEFKGHSLLQAAREADLAKVKKTLALEIINFKQPQSHETALHCAVASLHPKRKQVTELLLRKGANVNEKNKDFMTPLHVAAERAHNDVMEVLHKHGAKMNALDTLGQTALHRAALAGHLQTCRLLLSYGSDPSIISLQGFTAAQMGNEAVQQILSESTPIRTSDVDYRLLEASKAGDLETVKQLCSSQNVNCRDLEGRHSTPLHFAAGYNRVSVVEYLLHHGADVHAKDKGGLVPLHNACSYGHYEVAELLVRHGASVNVADLWKFTPLHEAAAKGKYEICKLLLKHGADPTKKNRDGNTPLDLVKEGDTDI
modifications: left off: large carriers
Interaction with TRF1 lacking the acidic domain (TRF1 [1]): abolished | β-galactosidase levels (lacZ reporter activation) (TRF1 [2]): 50.4 units

B2: tankyrase: human TRF1-binding protein of SEQ ID NO:2 with ANK repeats, SAM motif and PARP-related domain; recombinant, baculovirus-derived (protein)
chain: MAASRRSQHHHHHHQQQLQPAPGASAPPPPPPPPLSPGLAPGTTPASPTASGLAPFASPRHGLALPEGDGSRDPPDRPRSPDPVDGTSCCSTTSTICTVAAAPVVPAVSTSSAAGVAPNPAGSGSNNSPSSSSSPTSSSSSSPSSPGSSLAESPEAAGVSSTAPLGPGAAGPGTGVPAVSGALRELLEACRNGDVSRVKRLVDAANVNAKDMAGRKSSPLHFAAGFGRKDVVEHLLQMGANVHARDDGGLIPLHNACSFGHAEVVSLLLCQGADPNARDNWNYTPLHEAAIKGKIDVCIVLLQHGADPNIRNTDGKSALDLADPSAKAVLTGEYKKDELLEAARSGNEEKLMALLTPLNVNCHASDGRKSTPLHLAAGYNRVRIVQLLLQHGADVHAKDKGGLVPLHNACSYGHYEVTELLLKHGACVNAMDLWQFTPLHEAASKNRVEVCSLLLSHGADPTLVNCHGKSAVDMAPTPELRERLTYEFKGHSLLQAAREADLAKVKKTLALEIINFKQPQSHETALHCAVASLHPKRKQVTELLLRKGANVNEKNKDFMTPLHVAAERAHNDVMEVLHKHGAKMNALDTLGQTALHRAALAGHLQTCRLLLSYGSDPSIISLQGFTAAQMGNEAVQQILSESTPIRTSDVDYRLLEASKAGDLETVKQLCSSQNVNCRDLEGRHSTPLHFAAGYNRVSVVEYLLHHGADVHAKDKGGLVPLHNACSYGHYEVAELLVRHGASVNVADLWKFTPLHEAAAKGKYEICKLLLKHGADPTKKNRDGNTPLDLVKEGDTDIQDLLKGDAALLDAAKKGCLARVQKLCTPENINCRDTQGRNSTPLHLAAGYNNLEVAEYLLEHGADVNAQDKGGLIPLHNAASYGHVDIAALLIKYNTCVNATDKWAFTPLHEAAQKGRTQLCALLLAHGADPTMKNQEGQTPLDLATADDIRALLIDAMPPEALPTCFKPQATVVSASLISPASTPSCLSAASSIDNLTGPLAELAVGGASNAGDGAAGTERKEGEVAGLDMNISQFLKSLGLEHLRDIFETEQITLDVLADMGHEELKEIGINAYGHRHKLIKGVERLLGGQQGTNPYLTFHCVNQGTILLDLAPEDKEYQSVEEEMQSTIREHRDGGNAGGIFNRYNVIRIQKVVNKKLRERFCHRQKEVSEENHNHHNERMLFHGSPFINAIIHKGFDERHAYIGGMFGAGIYFAENSSKSNQYVYGIGGGTGCPTHKDRSCYICHRQMLFCRVTLGKSFLQFSTMKMAHAPPGHHSVIGRPSVNGLAYAEYVIYRGEQAYPEYLITYQIMKPEAPSQTATAAEQKT
TRF1 DNA binding activity on [TTAGGG]12 probe (TRF1 [3]; NAD+ included (0.2 mM), tankyrase 2.5 to 200 ng per 20 μl, TRF1 13 ng): drastic reduction | TRF1 DNA binding activity on [TTAGGG]12 probe (TRF1 [3]; NAD+ included (0.2 mM), tankyrase 2.5 to 200 ng per 20 μl, TRF1 13 ng, listed as Tankyrase): inhibition | TRF1 DNA binding activity on [TTAGGG]12 probe (TRF1 [3]; absence of NAD+, effect also seen with total insect cell protein (non-specific)): slight stimulation
